Assay results reported in paper PMC3082577.

B1: Kv3.1: N220Q/N229Q (protein)
parent chain: MGQGDESERIVINVGGTRHQTYRSTLRTLPGTRLAWLAEPDAHSHFDYDPRADEFFFDRHPGVFAHILNYYRTGKLHCPADVCGPLYEEELAFWGIDETDVEPCCWMTYRQHRDAEEALDSFGGAPLDNSADDADADGPGDSGDGEDELEMTKRLALSDSPDGRPGGFWRRWQPRIWALFEDPYSSRYARYVAFASLFFILVSITTFCLETHERFNPIVNKTEIENVRNGTQVRYYREAETEAFLTYIEGVCVVWFTFEFLMRVVFCPNKVEFIKNSLNIIDFVAILPFYLEVGLSGLSSKAAKDVLGFLRVVRFVRILRIFKLTRHFVGLRVLGHTLRASTNEFLLLIIFLALGVLIFATMIYYAERIGAQPNDPSASEHTHFKNIPIGFWWAVVTMTTLGYGDMYPQTWSGMLVGALCALAGVLTIAMPVPVIVNNFGMYYSLAMAKQKLPKKKKKHIPRPPQLGSPNYCKSVVNSPHHSTQSDTCPLAQEEILEINRADSKLNGEVAKAALANEDCPHIDQALTPDEGLPFTRSGTRERYGPCFLLSTGEYACPPGGGMRKDLCKESPVIAKYMPTEAVRVT
B2: Kv3.1: N220Q (protein)
parent chain: B1 parent chain
B3: Kv3.1: N229Q (protein)
parent chain: B1 parent chain

Legend:
Conditions in all cases: glycan lost; control: wild type
[1] = whole cell patch clamp, inactivating current type
[2] = whole cell patch clamp, inactivating current type, +40 mV
[3] = Western blot of purified Kv3.1
[4] = whole cell patch clamp, 2 s pulse, +40 mV
[5] = whole cell patch clamp, noninactivating current type, +40 mV
[6] = train of five +40 mV pulses, whole cell
[7] = whole cell patch clamp, current pattern classification
[8] = whole cell patch clamp, noninactivating current type

Protein | other: channel current deactivation time constant, other: τoff [1] | other: channel current, G-V slope factor, other: dV [1] | other: channel current, voltage of half activation, other: V0.5 [1] | other: channel current activation time constant, other: τon [2] | other: channel current rise time, other: rise time [2] | expression_or_secretion [3] | other: channel current remaining after 2 s pulse (inactivation), other: % current remaining [4] | other: channel current activation time constant, other: τon [5] | other: channel current rise time, other: rise time [5] | other: peak current remaining after repetitive depolarization [6] | other: share of inactivating whole cell current type, other: % inactivating current type [7] | other: channel current deactivation time constant, other: τoff [8] | other: channel current, G-V slope factor, other: dV [8] | other: channel current, voltage of half activation, other: V0.5 [8]
B1 | increases, 6.0±0.3 vs 4.1±0.2 | no change, 9.6±0.3 vs 10.5±0.5 | no change, 8.1±0.6 vs 10.1±0.7 | increases, 7.5±0.8 vs 4.0±0.3 | increases, 15.9±1.5 vs 8.6±0.5 | no change | increases, 62.3±3.1 vs 51.0±2.3 | increases, 7.4±1.2 vs 1.6±0.2 | increases, 10.2±1.5 vs 3.5±0.2 | decreases | increases, 68% vs 36% | increases, 5.6±0.2 vs 3.6±0.1 | no change, 18.7±0.5 vs 22.6±0.4 | no change, 22.3±0.4 vs 28.1±0.7
B2 | no change, 4.7±0.4 vs 4.1±0.2 | no change, 9.9±0.4 vs 10.5±0.5 | no change, 9.2±0.8 vs 10.1±0.7 | no change, 5.3±1.0 vs 4.0±0.3 | increases, 10.6±0.9 vs 8.6±0.5 | no change | increases, 60.2±2.7 vs 51.0±2.3 | no change, 1.4±0.4 vs 1.6±0.2 | no change, 3.2±0.4 vs 3.5±0.2 |  | increases, 65% vs 36% | no change, 4.0±0.3 vs 3.6±0.1 | no change, 19.8±0.6 vs 22.6±0.4 | no change, 30.7±0.6 vs 28.1±0.7
B3 | increases, 5.1±0.2 vs 4.1±0.2 | no change, 10.8±0.7 vs 10.5±0.5 | no change, 13.1±0.8 vs 10.1±0.7 | increases, 6.6±0.9 vs 4.0±0.3 | increases, 12.7±1.6 vs 8.6±0.5 | no change | increases, 64.8±4.1 vs 51.0±2.3 | no change, 1.2±0.1 vs 1.6±0.2 | no change, 3.1±0.1 vs 3.5±0.2 |  | no change, 29% vs 36% | no change, 3.9±0.2 vs 3.6±0.1 | no change, 24.3±0.6 vs 22.6±0.4 | no change, 27.5±0.5 vs 28.1±0.7
